These results are taken from patent US20180057603A1.

The test has as its target erbB2 (p185erbB2/HER2/neu) on SK-BR-3 cells (human) (UniProt P04626). Description: cell-based or functional assay.

anti-erbB2 mAb 4D5 (antibody): the foci less than 20 pixels in soft agar (SK-BR-3) came out at 72%.
